Results published in the supplement of paper PMC10567573.

B1: DYRK1B (parent)
chain: KKVLNHGYDDDNHDYIVRSGERWL
B2: ETS1 (parent)
chain: FSEPSFITESYQTLHPISSEELLS

Variants of: B1
Assay: protein stability index of a GFP-peptide fusion (GPS, HEK-293T) (PSI 1-6); higher = more stable
Details: c terminus: a fixed tail appended
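Further: lentivirally expressed fusions sorted by FACS into six bins by GFP to DsRed ratio, PSI derived from sequencing read proportions per bin multiplied by bin number.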

Protein stability index of substitutions, site by site:
V3: L 2.88 | R 2.83 | W 2.05 | E 3.48 | H 3.12 | N 3.15 | A 3.45 | F 2.61 | K 3.08 | C 2.41
N12: I 2.47 | G 2.81 | R 3.27 | S 3.01 | E 3.36 | K 3.05 | Q 3.48 | L 2.3 | C 2.67 | T 2.62 | A 2.7 | M 2.29 | D 3.4 | F 2.35 | V 2.64 | P 2.78 | W 2.01 | H 2.65 | Y 2.17
L4: W 3.1 | Q 4.12 | A 3.68 | P 3.36 | H 3.27 | G 3.87 | S 3.27 | C 3.33 | M 2.88 | Y 2.99 | K 3.68 | F 2.59 | V 2.58 | T 3.86 | E 3.56 | D 4.28 | I 3.33 | N 3.76 | R 3.38
K1: E 3.24 | V 2.29 | W 2.07 | G 3.5 | H 3.39 | N 2.95 | P 3.43 | A 3.11 | R 2.43 | D 3.62 | F 2.41 | L 2.48 | C 2.38 | M 3.09 | T 2.92 | Y 2.38 | S 3.23 | Q 2.74 | I 2.28
D10: Y 3.06 | E 2.95 | A 3.02 | G 3.46 | H 2.75 | V 2.44 | N 2.48 | I 2.3 | W 2.04 | L 2.43 | Q 2.99 | T 3 | P 2.81 | C 2.52 | S 2.72 | K 3.16 | R 2.82 | M 2.96 | F 1.83
D9: G 2.51 | V 2.67 | C 2.96 | H 2.74 | W 1.53 | K 2.87 | E 3.96 | M 2.83 | P 3.12 | S 2.34 | L 2.39 | T 2.75 | F 2.61 | N 2.63 | A 2.89 | I 2.52 | Q 2.94 | R 2.74 | Y 2.17

Variants of: B2
Assay: as above
Details: c terminus: a fixed tail appended

Protein stability index, by site and new letter:
S24: Y 1.79 | G 1.86 | N 1.79 | H 1.91 | M 1.97 | R 1.86 | T 1.99 | W 1.56 | I 1.85 | V 1.62 | F 1.65 | A 2.02 | C 1.5 | D 2.15 | E 2.54 | K 2.49 | P 2.04 | Q 2.16 | L 1.69
L22: D 2.16 | K 2.55 | G 2.03 | V 2.31 | Y 2.04 | E 2.67 | N 2.33 | W 1.62 | T 1.97 | M 2 | Q 2.19 | F 2.01 | A 2.04 | C 1.97 | P 2.42 | I 2.2 | S 2 | R 2.19 | H 2.71
E21: Y 1.49 | W 1.99 | V 2.2 | T 2 | S 1.52
L23: N 2.31 | Y 1.78 | T 2.29 | S 2.07 | V 2.06 | F 2.38 | I 1.52 | K 2.83 | R 2.16 | C 1.97 | E 2.44 | H 2.61 | W 1.81 | A 2.57 | G 1.98 | P 2.14 | D 2.47 | M 2.03 | Q 2.59
